# Results published in publication PMC6382854 (2019).
# Biological target: taxol-stabilized microtubules (polymerized porcine tubulin) (porcine, UniProt P02550 1-451; P02554 1-445)
# Sequence (P02550 whole entry, chain 1 of 2): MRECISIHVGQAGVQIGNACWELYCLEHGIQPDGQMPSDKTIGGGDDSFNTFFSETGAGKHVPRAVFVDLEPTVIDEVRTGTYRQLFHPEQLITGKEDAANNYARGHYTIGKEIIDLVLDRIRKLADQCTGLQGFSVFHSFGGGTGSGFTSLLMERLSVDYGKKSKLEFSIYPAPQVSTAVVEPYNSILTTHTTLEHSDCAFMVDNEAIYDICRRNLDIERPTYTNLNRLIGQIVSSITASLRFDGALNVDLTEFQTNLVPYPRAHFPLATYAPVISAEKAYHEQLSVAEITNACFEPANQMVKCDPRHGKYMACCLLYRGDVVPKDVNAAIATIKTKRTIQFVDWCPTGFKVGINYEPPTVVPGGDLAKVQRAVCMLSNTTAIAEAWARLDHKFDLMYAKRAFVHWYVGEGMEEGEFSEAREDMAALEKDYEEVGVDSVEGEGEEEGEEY
# Sequence (P02554 whole entry, chain 2 of 2): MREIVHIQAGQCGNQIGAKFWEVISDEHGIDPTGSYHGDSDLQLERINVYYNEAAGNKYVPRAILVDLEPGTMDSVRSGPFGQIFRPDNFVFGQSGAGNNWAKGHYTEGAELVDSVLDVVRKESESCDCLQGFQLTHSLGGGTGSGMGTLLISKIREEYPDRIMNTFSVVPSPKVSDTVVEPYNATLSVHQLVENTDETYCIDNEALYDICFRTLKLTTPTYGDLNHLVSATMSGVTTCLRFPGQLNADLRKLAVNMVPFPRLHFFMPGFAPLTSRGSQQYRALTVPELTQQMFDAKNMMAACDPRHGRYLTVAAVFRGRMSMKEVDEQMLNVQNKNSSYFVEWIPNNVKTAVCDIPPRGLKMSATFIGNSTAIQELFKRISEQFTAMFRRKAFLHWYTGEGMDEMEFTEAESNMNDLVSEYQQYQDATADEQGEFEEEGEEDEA
row,Kd,Binder
1,6.9 µM,"6xHis-tagged CC1ΔC223 (cytosolic N-terminal part of COMPANION OF CELLULOSE SYNTHASE 1, residues 1-120) (domain or fragment) MHAKTDSEVTSLAASSPARSPRRPVYYVQSPSRDSHDGEKTATSFHSTPVLSPMGSPPHSHSSMGRHSRESSSSRFSGSLKPGSRKVNPNDGSKRKGHGGEKQWKECAVIEEEGLLDDGD"
2,16.3 µM,6xHis-tagged CC1ΔC223YYAA (domain or fragment) MHAKTDSEVTSLAASSPARSPRRPVAAVQSPSRDSHDGEKTATSFHSTPVLSPMGSPPHSHSSMGRHSRESSSSRFSGSLKPGSRKVNPNDGSKRKGHGGEKQWKECAVIEEEGLLDDGD
